The labels stand for the following.
B1: OR4K15 (parent)
chain: GUUAACGGUCAUAGGCCAUGGAAACUAGGAGCACCAUUUCGCUGCCAGUGAAGAAAUGAACAAAGAAAAUCUGGGCCAGGCAGGCAUCAAAAGAAAUAGUCUUGCGCUCAACCAGAAAGUCUGUAAUCAUUUUAAGGGUA

In this series the parent is B1. Put plainly: self-cleavage, relative activity (ratio to wild type); higher = more cleavage; in vitro, sequencing; the parent is a self-cleaving ribozyme.
On to A13G U103C, for which the self-cleavage is 0.75.

With U102C G123A, the self-cleavage turned out to be 2.17. In the case of A63G A98U, the self-cleavage was determined as 2.55. Regarding U37A A91G, the self-cleavage was 0.78.

With A22C A30G, the self-cleavage amounted to 1.

Regarding A24C A62G, the self-cleavage came out at 1.2.

As to A69G A98G, the self-cleavage worked out at 0.49.

For the variant A36G C113U, the self-cleavage was 0.07. Consider A47C A52G, for which the self-cleavage is 0.57. Consider U57C A126G, for which the self-cleavage is 0.4.

As for A33G A63U, the self-cleavage came to 0.76. A18G A78G: the self-cleavage was found to be 0.33. For A5G G74A, the self-cleavage worked out at 0.73. Take U2A A51U: the self-cleavage stood at 0.86.

As to U72A U132A, the self-cleavage is 0.25. Then U49C G73A, with 0.28. For the variant A36G A89G, the self-cleavage came out at 1.52. For the variant U43C A116C, the self-cleavage came out at 0.07.

On to A5U U87A, for which the self-cleavage stood at 1.2. In the case of U12C A94U, the self-cleavage was 1.8. As for A33G A47U, the self-cleavage came to 0.57. Regarding U9C A56G, the self-cleavage was determined as 1.24. With A78G A90U, the self-cleavage was 0.31. Then A52G C71U, with 0.44; and A5C A116G, with 0.83; and U19A A111C, with 0.01. On to U37C G106A, for which the self-cleavage turned out to be 0.01. In the case of A86G A125U, the self-cleavage was determined as 0.14. Turning to A11G A64G, the self-cleavage worked out at 1.3.

Turning to C42A A98G, the self-cleavage worked out at 0.37.

Consider A56G A98G, for which the self-cleavage is 0.57.

Regarding A51G A69U, the self-cleavage was 1.41. Then G1U A36G, with 1.26. Then A51U A111U, with 0.06; and A51U A78C, with 0.2.

On to U87A A96G, for which the self-cleavage is 2.29. Then G44A A94G, with 1.48; and A117U A129G, with 0.47; and U39C A69C, with 1.33.

Take A118G U130C: the self-cleavage stood at 0.73. In the case of U9C C109G, the self-cleavage worked out at 0.04. On to A55G A60U, for which the self-cleavage was 1.62. Consider A30U A36G, for which the self-cleavage is 1.71. For the variant G50U A56G, the self-cleavage worked out at 1.63.

With C76U A94G, the self-cleavage is 0.13. For U9A A62G, the self-cleavage worked out at 0.45. U132A: the self-cleavage amounted to 1.53. For the variant A36U C61U, the self-cleavage came to 2.41.

In the case of U9C U38C, the self-cleavage was 1.7. Then A30G A125G, with 0.87. Then U102A A111G, with 0.03; and A82C A86U, with 0.13. Then A78U A126U, with 0.35; and A60U G79U, with 0.08. Consider C71U A89G, for which the self-cleavage was 0.52.

In the case of A91U U97A, the self-cleavage was 2.19.

Regarding G8A A134G, the self-cleavage amounted to 1.52. Consider U12A A95G, for which the self-cleavage is 1.29.

Regarding U108C A140G, the self-cleavage came to 0.01.

Turning to U9A U120C, the self-cleavage was 0.79. Take A36G G75A: the self-cleavage was 0.09.

Turning to A67G A118U, the self-cleavage was 0.81.

As for A69G G73U, the self-cleavage was 0.33. For the variant U26C U70A, the self-cleavage was 0.63. With A68G A92C, the self-cleavage was found to be 1.7.

Regarding A36G U97C, the self-cleavage was 2.04.

Consider A60G U130G, for which the self-cleavage was determined as 1.18. Consider C42U A96G, for which the self-cleavage was determined as 2.35. For A11C U43C, the self-cleavage was 2.23. On to U103C G104A, for which the self-cleavage amounted to 0.02. As to A11G G73A, the self-cleavage was 0.14.

Take A66G U130C: the self-cleavage is 1.68. Then G53A A111G, with 0.02; and A60C A82G, with 0.28.

In the case of U19C G115A, the self-cleavage was 0.03.

As to U38C U103A, the self-cleavage amounted to 0.64.

Take G79A A86U: the self-cleavage came out at 0.09. Then U37G A51G, with 1.31. Regarding A24G A118G, the self-cleavage was 1.01. Turning to A55G U100A, the self-cleavage was found to be 0.48. For A67G A110G, the self-cleavage was 0.11. Then A111G A118U, with 0. Then U26C G58U, with 1.48.

Regarding A86U C105U, the self-cleavage is 0.27.

Turning to A90U A135G, the self-cleavage was 2.04. Regarding A27U U139C, the self-cleavage was 1.56. Regarding A33G U102A, the self-cleavage turned out to be 0.34. Then U100G, with 1.24. Turning to C85U U87C, the self-cleavage came to 1.47.

Regarding A11C A78G, the self-cleavage amounted to 0.18. Take G73A U131C: the self-cleavage was found to be 0.08. Take U12C U130A: the self-cleavage came out at 1.45. As to U49A A118G, the self-cleavage turned out to be 1.31. Regarding U120C U124C, the self-cleavage stood at 0.34. Then U38A A110G, with 0.16; and A59U A78U, with 0.31; and G28U A118U, with 0.68.

As for U9C U49A, the self-cleavage worked out at 1.56.

As to A30U A82U, the self-cleavage is 0.23. For U3C A82U, the self-cleavage amounted to 0.21. U131A U132A: the self-cleavage is 0.14. As to A13G C88U, the self-cleavage stood at 1.29. For the variant A86C A89G, the self-cleavage is 1.17. In the case of C35U A135G, the self-cleavage turned out to be 1.57. As to U3A A89G, the self-cleavage came out at 1.51. Then C17A, with 1.46. For U19C A86G, the self-cleavage was 1.37. As for U57A A114U, the self-cleavage was found to be 0.03. For A27G A91C, the self-cleavage came to 1.42. Then U2C G7U, with 1.2; and A90U A92G, with 1.38; and A82G A91G, with 0.12. Then A95U A134G, with 1.48; and U9C A11G, with 0.85.

As for U49C A98C, the self-cleavage is 1.84. As for A27G A63U, the self-cleavage stood at 1.83. As for A91G U108A, the self-cleavage was found to be 0.01. For U38A, the self-cleavage amounted to 1.44. On to U12C A63C, for which the self-cleavage is 1.12.

As to A67G U124G, the self-cleavage is 1.24. Then U39A A62G, with 1.21; and A54G U124A, with 0.9; and A59U, with 1.14.

For U2C A110G, the self-cleavage is 0.11. Then C10U A22U, with 1.21.

On to G1U A24G, for which the self-cleavage amounted to 1.6. Then C25U A86U, with 0.61.

Consider A13U A62G, for which the self-cleavage was found to be 0.9. As for U49A A98G, the self-cleavage turned out to be 0.44. For the variant U57C A135U, the self-cleavage is 1.02. For the variant C42U A94G, the self-cleavage stood at 2.27. Regarding A55G C76U, the self-cleavage is 0.15. As to C25U, the self-cleavage is 1.3. As to U72C U124G, the self-cleavage came out at 0.07. For the variant G65A A91G, the self-cleavage turned out to be 0.96. In the case of A30U A89U, the self-cleavage was determined as 1.55. As to A13G A55G, the self-cleavage is 0.97.

Regarding A11G A22U, the self-cleavage stood at 1.75. In the case of U43A G83A, the self-cleavage was 1.97. For the variant U2C A54G, the self-cleavage turned out to be 0.68.

Regarding A11G A89U, the self-cleavage amounted to 1.34. Regarding A18C A68U, the self-cleavage was found to be 1.04. In the case of U124C A129G, the self-cleavage was 0.8. As to A78G A111G, the self-cleavage was determined as 0.03. Regarding U120C A135U, the self-cleavage came out at 0.85.

Regarding A89G A98G, the self-cleavage came to 0.67. Turning to A89U G115U, the self-cleavage worked out at 0.56.

In the case of C10U U57C, the self-cleavage is 1.03. Then U38A U108G, with 0.01; and A4G U39A, with 1.27; and A22G C77U, with 1.62. For the variant U2G A111U, the self-cleavage came out at 0.17. Then U72C G136C, with 0.31; and U100C A111G, with 0.01; and A4G U37C, with 0.91. For U72C A116G, the self-cleavage is 0.07. Then A5C U38C, with 1.28; and U26C U39C, with 1.63; and A11U U108A, with 0.02.

Take U9C U124C: the self-cleavage was 1.25. With A60C U72C, the self-cleavage was found to be 0.16. Regarding A135U, the self-cleavage is 1.47. Consider U38C A118U, for which the self-cleavage amounted to 0.98. Then C17U A110G, with 0.05; and A56U U133C, with 2.27. As for U26A A63C, the self-cleavage worked out at 1.71.

For C112U, the self-cleavage amounted to 0.02.

The record behind these values is the RNAGym collection of RNA variant scans (doi:10.7554/elife.90254).
